From patent US20080038257A1 (AVEO PHARMACEUTICALS, published 2008)
Positions count from the first letter of the chain named. Like-named read-outs stand apart in the source and are kept apart here. Each block holds one binder with its values, some of them ahead of it.

Tests used:
Test in all cases: cell-based or functional assay
[1] = molecular target: T1, recombinant human HGF (R&D Systems, Catalog No. 294-HGN-025) (human, UniProt P14210 32-728)
[2] = molecular target: T1, recombinant human HGF (R&D Systems, …); remark: listed apart in the source
[3] = molecular target: T1, recombinant human HGF (R&D Systems, …); remark: listed apart in the source
[4] = molecular target: T1, recombinant human HGF (R&D Systems, …); remark: listed apart in the source

T1 sequence (P14210 32-728 limits assumed): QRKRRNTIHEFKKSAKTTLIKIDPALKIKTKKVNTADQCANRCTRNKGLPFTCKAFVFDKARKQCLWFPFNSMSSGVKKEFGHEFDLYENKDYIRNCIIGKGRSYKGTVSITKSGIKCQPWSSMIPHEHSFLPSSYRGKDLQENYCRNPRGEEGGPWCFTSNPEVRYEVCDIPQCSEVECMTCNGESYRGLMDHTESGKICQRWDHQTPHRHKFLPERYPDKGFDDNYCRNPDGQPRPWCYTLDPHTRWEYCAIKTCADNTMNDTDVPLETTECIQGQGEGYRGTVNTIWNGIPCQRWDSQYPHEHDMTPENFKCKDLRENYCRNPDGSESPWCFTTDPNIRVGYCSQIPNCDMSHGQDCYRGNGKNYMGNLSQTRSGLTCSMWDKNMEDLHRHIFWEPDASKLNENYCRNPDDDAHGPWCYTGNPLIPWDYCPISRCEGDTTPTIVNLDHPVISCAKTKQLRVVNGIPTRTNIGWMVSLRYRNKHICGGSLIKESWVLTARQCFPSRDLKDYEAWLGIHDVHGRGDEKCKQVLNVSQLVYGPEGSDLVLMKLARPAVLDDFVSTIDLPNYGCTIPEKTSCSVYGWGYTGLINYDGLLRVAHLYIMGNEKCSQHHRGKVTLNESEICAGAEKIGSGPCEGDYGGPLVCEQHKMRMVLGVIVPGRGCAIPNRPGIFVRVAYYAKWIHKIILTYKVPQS

EC50 in nM, HGF-stimulated c-Met phosphorylation in PC-3 cells, Average of Two Trials [1]: 1.01 nM
IC50 (nM), HGF stimulated BrdU incorporation in 4MBr-5 cells [2]: 36.1 nM
B1: anti-hHGF monoclonal antibody 3B6 (antibody, mouse IgG1, kappa, V domains shown)
VH: QVQLQQSGAELVRPGSSVKISCKASGYVFSSYWMNWVKQRPGQGLEWIGQIYPGDGDSNYNGNFKGKATLTADKSSSTAYMQLSSLTSEDSAVYFCASQLGLRENYFDYWGQGTTLTVSS
VL: DIKMTQSPSSMYASLGERVTITCKASQDIKSYLSWFQQKPGKSPKTLIYRVNRLVDGVPSRFSGSGSGQDSSLTITSLENEDMGIYYCLQYDEFPFTFGGGTKLEIKR

IC50 (nM), HGF stimulated BrdU incorporation in 4MBr-5 cells [3]: 0.52 nM
HGF-stimulated c-Met phosphorylation in PC-3 cells (assay of Example 9), Average of Two Trials [4]: 0.93 nM
B2: sh2B8-9 (G1m(3)) = hu2B8 Hv5-51.1 + IgG1 constant G1m(3) allele 2 plus hu2B8 Kv1-39.1 + Kappa Km(3) allele 2 (antibody)
heavy: not shown
light: DIQMTQSPSSLSASVGDRVTITCKASENVVSYVSWYQQKPGKAPKLLIYGASNRNTGVPSRFSGSGSGTDFTLTISSLQPEDFATYYCGQSYNYPYTFGQGTKLEIKRTVAAPSVFIFPPSDEQLKSGTASVVCLLNNFYPREAKVQWKVDNALQSGNSQESVTEQDSKDSTYSLSSTLTLSKADYEKHKVYACEVTHQGLSSPVTKSFNRGEC

EC50 in nM, HGF-stimulated c-Met phosphorylation in PC-3 cells, Average of Two Trials [1]: 1.39 nM
IC50 (nM), HGF stimulated BrdU incorporation in 4MBr-5 cells [2]: 19.2 nM
B3: anti-hHGF monoclonal antibody 2F8 (antibody, mouse IgG1, kappa, V domains shown)
VH: QVQLKQSGAELVRPGTSVKMSCKASGYTFTTYYIHWVNQRPGQGLEWIGKIGPGSGSTYYNEMFKDKATLTVDTSSSTAYMQLSSLTSDDSAVYFCARRGLGRGFDYWGQGTTLTVSS
VL: DIVLTQSPASLAVSLGQRATISCKASQSVDYDGNSYINWYQQKPGQPPKVLIYVASNLESGIPARFSGSGSGTDFTLNIHPVEEEDAATYYCQQSIEDPPTFGAGTKLELKR

EC50 in nM, HGF-stimulated c-Met phosphorylation in PC-3 cells, Average of Two Trials [1]: 2.28 nM
IC50 (nM), HGF stimulated BrdU incorporation in 4MBr-5 cells [2]: 51.1 nM
B4: anti-hHGF monoclonal antibody 3D11 (antibody, mouse IgG1, kappa, V domains shown)
VH: QVQLKESGPGLVAPSQSLSITCTVSGFSLTSYSLHWVRQPPGKGLEWLGVIWAGGNTNYNSSLMSRLTIRKDNSKSQVFLKMNSLQTDDTAMYYCARERFAYWGQGTLVTVSA
VL: QIVLTQSPAIMSAYPGEKVTMTCSASSSVSYMHWYQQKSGTSPKRWIYDTSKLASGVPARFSGSGSGTSYSLTISSMEAEDAATYYCQQWSSNPLTFGAGTKLELKR

EC50 in nM, HGF-stimulated c-Met phosphorylation in PC-3 cells, Average of Two Trials [1]: 0.684 nM
IC50 (nM), HGF stimulated BrdU incorporation in 4MBr-5 cells [2]: 4.69 nM
B5: anti-hHGF monoclonal antibody 1A3 (antibody, mouse IgG1, kappa, V domains shown)
VH: EVQLVESGGGLVQPGGSLKLSCAASEFTFSNYYMSWVRQTPEKRLQWVAYISPGGGSSYYPASVKGRFTISRDNAKNTLYLQMSSLKSEDTAMYYCARQGDGYYGDYAMDYWGQGTSVTVSS
VL: DIQMTQSPASLSVSVGETVTITCRASENIYSNLAWYQQKQGKSPQLLVYAATNLADGVPSRFSGSGSGTQFSLKINSLQSEDFGTYYCQHFWGTPYTFGGGTKLEIKR

EC50 in nM, HGF-stimulated c-Met phosphorylation in PC-3 cells, Average of Two Trials [1]: 1.19 nM
IC50 (nM), HGF stimulated BrdU incorporation in 4MBr-5 cells [2]: 1.94 nM
B6: anti-hHGF monoclonal antibody 1F3 (antibody, mouse IgG1, kappa, V domains shown)
VH: B5 VH with P14S, E26G, Y33F, Q46E, P53S, S58T, A62D, A97V
VL: B5 VL with A50D, N53H, A55P, T85S, K103R

EC50 in nM, HGF-stimulated c-Met phosphorylation in PC-3 cells, Average of Two Trials [1]: 0.984 nM
IC50 (nM), HGF stimulated BrdU incorporation in 4MBr-5 cells [2]: 4.99 nM
B7: anti-hHGF monoclonal antibody 1D3 (antibody, mouse IgG1, kappa, V domains shown)
VH: B5 VH with E26G, N31D, Q46E, P53S, S58T, A62D, M93I, A97V, T119I
VL: B5 VL with A25T, V48I, K74R, T85R

EC50 in nM, HGF-stimulated c-Met phosphorylation in PC-3 cells, Average of Two Trials [1]: 2 nM
IC50 (nM), HGF stimulated BrdU incorporation in 4MBr-5 cells [2]: 30.3 nM
B8: anti-hHGF monoclonal antibody 3A12 (antibody, mouse IgG1, kappa, V domains shown)
VH: B5 VH with L20I, E26G, Y33F, Q46E, P53S, S58T, A62D, S84N, A97V
VL: B5 VL with S31I, Y49H, N53K, F71Y, T85S

IC50 (nM), HGF stimulated BrdU incorporation in 4MBr-5 cells [3]: 0.86 nM
EC50 in nM, HGF-stimulated c-Met phosphorylation in PC-3 cells, Average of Two Trials [1]: 0.287 nM
IC50 (nM), HGF stimulated BrdU incorporation in 4MBr-5 cells [2]: 1.41 nM
HGF-stimulated c-Met phosphorylation in PC-3 cells (assay of Example 9), Average of Two Trials [4]: 0.91 nM
B9: anti-hHGF monoclonal antibody 2B8 (antibody, mouse IgG1, kappa)
heavy: QVQLQQPGAELVKPGTSVKLSCKASGYTFTTYWMHWVNQRPGQGLEWIGEINPTNGHTNYNEKFKSKATLTVDKSSSTAYMQLSSLTSEDSAVYYCARNYVGSIFDYWGQGTTLTVSSAKTTPPSVYPLAPGSAAQTNSMVTLGCLVKGYFPEPVTVTWNSGSLSSGVHTFPAVLQSDLYTLSSSVTVPSSTWPSETVTCNVAHPASSTKVDKKIVPRDCGCKPCICTVPEVSSVFIFPPKPKDVLTITLTPKVTCVVVDISKDDPEVQFSWFVDDVEVHTAQTQPREEQFNSTFRSVSELPIMHQDWLNGKEFKCRVNSAAFPAPIEKTISKTKGRPKAPQVYTIPPPKEQMAKDKVSLTCMITDFFPEDITVEWQWNGQPAENYKNTQPIMDTDGSYFVYSKLNVQKSNWEAGNTFTCSVLHEGLHNHHTEKSLSHSPGK
light: NIVMTQSPKSMSMSVGERVTLSCKASENVVSYVSWYQQKPAQSPKLLIYGASNRNTGVPDRFTGSGSATDFTLTISSVRAEDLADYHCGQSYNYPYTFGGGTRLEIKRADAAPTVSIFPPSSEQLTSGGASVVCFLNNFYPKDINVKWKIDGSERQNGVLNSWTDQDSKDSTYSMSSTLTLTKDEYERHNSYTCEATHKTSTSPIVKSFNRNEC

IC50 (nM), HGF stimulated BrdU incorporation in 4MBr-5 cells [3]: 0.47 nM
HGF-stimulated c-Met phosphorylation in PC-3 cells (assay of Example 9), Average of Two Trials [4]: 0.8 nM
B10: HE2B8-1 (LR2B8HC + IgG1 G1m(3) allele 1 plus LR2B8LC + Kappa Km(3) allele 1) (antibody, V domains shown)
VH: QVQLVQPGAEVVKPGTSVKLSCKASGYTFTTYWMHWVNQAPGQGLEWIGEINPTNGHTNYNEKFKGKATLTVDKSTSTAYMELSSLRSEDTAVYYCARNYVGSIFDYWGQGTLLTVSS
VL: DIVMTQSPDSMAMSVGERVTLNCKASENVVSYVSWYQQKPGQSPKLLIYGASNRNTGVPDRFSGSGSATDFTLTISSVQAEDVADYHCGQSYNYPYTFGQGTKLEIKR

IC50 (nM), HGF stimulated BrdU incorporation in 4MBr-5 cells [3]: 0.58 nM
HGF-stimulated c-Met phosphorylation in PC-3 cells (assay of Example 9), Average of Two Trials [4]: 0.75 nM
B11: HE2B8-4 (LRMR2B8HC + IgG1 G1m(3) allele 1 plus LRMR2B8LC + Kappa Km(3) allele 1) (antibody, V domains shown)
VH: B10 VH with V12K, N38R, E62Q, K65Q, K67R
VL: B10 VL with M11L, V15L, N55E, T56S

IC50 (nM), HGF stimulated BrdU incorporation in 4MBr-5 cells [3]: 0.66 nM
HGF-stimulated c-Met phosphorylation in PC-3 cells (assay of Example 9), Average of Two Trials [4]: 0.88 nM
B12: HE2B8-2 (LR2B8HC + IgG1 G1m(3) allele 1 plus LRMR2B8LC + Kappa Km(3) allele 1) (antibody, V domains shown)
VH: B10 VH
VL: B10 VL with M11L, V15L, N55E, T56S

IC50 (nM), HGF stimulated BrdU incorporation in 4MBr-5 cells [3]: 0.55 nM
HGF-stimulated c-Met phosphorylation in PC-3 cells (assay of Example 9), Average of Two Trials [4]: 0.79 nM
B13: HE2B8-3 (LRMR2B8HC + IgG1 G1m(3) allele 1 plus LR2B8LC + Kappa Km(3) allele 1) (antibody, V domains shown)
VH: B10 VH with V12K, N38R, E62Q, K65Q, K67R
VL: B10 VL
